B1: 17T2 mAb (human recombinant monoclonal IgG1) (antibody, V domains shown)
VH: QVQLVQSGPEVKKPGTSVKVSCKAPVFTFSISAVQWVRQARGQRLEWIGWIVVGSGNTNYAQNFQERVTITTDMSTGTVYMELSGLRSEDTAMYYCAAPYCNRTTCYDGFDLWGQGTMVTVSS
VL: EIVLTQSPGTLSLSPGERATLSCRASQSISSNYLAWYQQKPGQAPRLLIYGASSRATGIPDRFSGSGSGTDFTLSINRLEPEDFAMYYCQHYGGLSRWTFGQGTKVEIK
B2: 17T2 Fab fragment (Fab, V domains shown)
VH: B1 VH
VL: B1 VL
notes: also called Fab 17T2

Experiments:
[1] = target: T1, RBD of the WH1 (ancestral) SARS-CoV-2 spike protein (Severe acute respiratory syndrome …, UniProt P0DTC2); experiment: ELISA; conditions: both partners purified
T1 construct: also called RBD from the ancestral variant; WH1 RBD

[2] = target: T2, B.1.1.529 (BA.1) S1 + S2 Trimer-His Recombinant Protein (SARS-CoV-2 Omicron B.1.1.529 (BA.1), strain); experiment: cryo-EM structure; conditions: both partners purified
T2 construct: also called Omicron BA.1 trimeric spike; BA.1 spike

Binder | binding result [1] | stoichiometry N [2] [Fab per spike trimer]
B1 | binds | 
B2 |  | 3

Source: paper doi:10.1101/2023.01.20.524748, “A Novel Monoclonal Antibody Targeting a Large Surface of the Receptor Binding Motif Shows Pan-neutralizing SARS-CoV-2 Activity Including BQ.1.1 Variant” (bioRxiv, 2023)
